{"source": "patent US20230002480A1", "test_in_all_cases": "cell-based or functional assay", "key": {"[1]": {"target": "HIV-1 Env of pseudovirus 1012_11_TC21_3257 (HIV-1)"}, "[2]": {"target": "HIV-1 Env of pseudovirus 1054_07_TC4_1499 (HIV-1)"}, "[3]": {"target": "HIV-1 Env of pseudovirus 231965.c01 (HIV-1)"}, "[4]": {"target": "HIV-1 Env of pseudovirus 249M B10 (HIV-1)"}, "[5]": {"target": "HIV-1 Env of pseudovirus 6041.v3.c23 (HIV-1)"}, "[6]": {"target": "HIV-1 Env of pseudovirus 6535.3 (HIV-1)"}, "[7]": {"target": "HIV-1 Env of pseudovirus 6811.v7.c18 (HIV-1)"}, "[8]": {"target": "HIV-1 Env of pseudovirus BF1266.431a (HIV-1)"}, "[9]": {"target": "HIV-1 Env of pseudovirus BJOX009000.02.4 (HIV-1)"}, "[10]": {"target": "HIV-1 Env of pseudovirus BJOX010000.06.2 (HIV-1)"}, "[11]": {"target": "HIV-1 Env of pseudovirus CAAN5342.A2 (HIV-1)"}, "[12]": {"target": "HIV-1 Env of pseudovirus CNE21 (HIV-1)"}, "[13]": {"target": "HIV-1 Env of pseudovirus CNE30 (HIV-1)"}, "[14]": {"target": "HIV-1 Env of pseudovirus Ce0682_E4 (HIV-1)"}, "[15]": {"target": "HIV-1 Env of pseudovirus Ce1176_A3 (HIV-1)"}, "[16]": {"target": "HIV-1 Env of pseudovirus Ce704809221_1B3 (HIV-1)"}, "[17]": {"target": "HIV-1 Env of pseudovirus Du156.12 (HIV-1)"}, "[18]": {"target": "HIV-1 Env of pseudovirus MS208.A1 (HIV-1)"}, "[19]": {"target": "HIV-1 Env of pseudovirus Q769.d22 (HIV-1)"}, "[20]": {"target": "HIV-1 Env of pseudovirus R1166.c01 (HIV-1)"}, "[21]": {"target": "HIV-1 Env of pseudovirus SC05_8C11_2344 (HIV-1)"}, "[22]": {"target": "HIV-1 Env of pseudovirus SC422661.8 (HIV-1)"}, "[23]": {"target": "HIV-1 Env of pseudovirus T251-18 (HIV-1)"}, "[24]": {"target": "HIV-1 Env of pseudovirus T257-31 (HIV-1)"}, "[25]": {"target": "HIV-1 Env of pseudovirus THRO4156.18 (HIV-1)"}, "[26]": {"target": "HIV-1 Env of pseudovirus TRJO4551.58 (HIV-1)"}, "[27]": {"target": "HIV-1 Env of pseudovirus WEAU_d15_410_787 (HIV-1)"}, "[28]": {"target": "HIV-1 Env of pseudovirus WITO4160.33 (HIV-1)"}, "[29]": {"target": "HIV-1 Env of pseudovirus ZM109F.PB4 (HIV-1)"}, "[30]": {"target": "HIV-1 Env of pseudovirus ZM233M.PB6 (HIV-1)"}, "[31]": {"target": "HIV-1 Env of pseudovirus ZM249M.PL1 (HIV-1)"}, "[32]": {"target": "HIV-1 Env of pseudovirus ZM53M.PB12 (HIV-1)"}}, "data": [{"binder": "N49P23 (antibody, V domains shown) VH: QVRLVQSGAGARKTGASMKLSCSTSGYTFTTHHGHFINWVRQARGQGLEWMGWMNPMTGQMNIEGKFQGRVTLTRDIYSDTAYMEMTRLTTGDTGTYYCARGDFGQNYPFHYWGQGSLVIVSS VL: LSALTQPASVSGSPGQSVTISCSGTNRYLVSWYQQHPDKAPKLIIYDDNKRPSGISDRFSASRPDDTASLTISGLQTGDEATYWCASYERFGGGTRLTVLS", "values": [{"measurement": "IC50", "setting": "[1]", "value": 0.013, "unit": "µg/mL"}, {"measurement": "IC80", "setting": "[1]", "value": 0.085, "unit": "µg/mL"}, {"measurement": "MPI", "setting": "[1]", "value": 100}, {"measurement": "IC50", "setting": "[2]", "value": 0.272, "unit": "µg/mL"}, {"measurement": "IC80", "setting": "[2]", "value": 1.21, "unit": "µg/mL"}, {"measurement": "MPI", "setting": "[2]", "value": 100}, {"measurement": "IC50", "setting": "[3]", "value": "> 50", "unit": "µg/mL"}, {"measurement": "IC80", "setting": "[3]", "value": "> 50", "unit": "µg/mL"}, {"measurement": "MPI", "setting": "[3]", "value": 35}, {"measurement": "IC50", "setting": "[4]", "value": "> 50", "unit": "µg/mL"}, {"measurement": "IC80", "setting": "[4]", "value": "> 50", "unit": "µg/mL"}, {"measurement": "MPI", "setting": "[4]", "value": 20}, {"measurement": "IC50", "setting": "[5]", "value": 7.47, "unit": "µg/mL"}, {"measurement": "IC80", "setting": "[5]", "value": "> 50", "unit": "µg/mL"}, {"measurement": "MPI", "setting": "[5]", "value": 63}, {"measurement": "IC50", "setting": "[6]", "value": 0.127, "unit": "µg/mL"}, {"measurement": "IC80", "setting": "[6]", "value": 0.855, "unit": "µg/mL"}, {"measurement": "MPI", "setting": "[6]", "value": 100}, {"measurement": "IC50", "setting": "[7]", "value": 17.7, "unit": "µg/mL"}, {"measurement": "IC80", "setting": "[7]", "value": "> 50", "unit": "µg/mL"}, {"measurement": "MPI", "setting": "[7]", "value": 61}, {"measurement": "IC50", "setting": "[8]", "value": 0.083, "unit": "µg/mL"}, {"measurement": "IC80", "setting": "[8]", "value": 0.44, "unit": "µg/mL"}, {"measurement": "MPI", "setting": "[8]", "value": 99}, {"measurement": "IC50", "setting": "[9]", "value": "> 50", "unit": "µg/mL"}, {"measurement": "IC80", "setting": "[9]", "value": "> 50", "unit": "µg/mL"}, {"measurement": "MPI", "setting": "[9]", "value": 8}, {"measurement": "IC50", "setting": "[10]", "value": 0.284, "unit": "µg/mL"}, {"measurement": "IC80", "setting": "[10]", "value": 2.08, "unit": "µg/mL"}, {"measurement": "MPI", "setting": "[10]", "value": 100}, {"measurement": "IC50", "setting": "[11]", "value": 0.412, "unit": "µg/mL"}, {"measurement": "IC80", "setting": "[11]", "value": 1.38, "unit": "µg/mL"}, {"measurement": "MPI", "setting": "[11]", "value": 100}, {"measurement": "IC50", "setting": "[12]", "value": "> 50", "unit": "µg/mL"}, {"measurement": "IC80", "setting": "[12]", "value": "> 50", "unit": "µg/mL"}, {"measurement": "MPI", "setting": "[12]", "value": 0}, {"measurement": "IC50", "setting": "[13]", "value": 0.143, "unit": "µg/mL"}, {"measurement": "IC80", "setting": "[13]", "value": 0.68, "unit": "µg/mL"}, {"measurement": "MPI", "setting": "[13]", "value": 100}, {"measurement": "IC50", "setting": "[14]", "value": 1.39, "unit": "µg/mL"}, {"measurement": "IC80", "setting": "[14]", "value": "> 50", "unit": "µg/mL"}, {"measurement": "MPI", "setting": "[14]", "value": 76}, {"measurement": "IC50", "setting": "[15]", "value": 0.297, "unit": "µg/mL"}, {"measurement": "IC80", "setting": "[15]", "value": 1.38, "unit": "µg/mL"}, {"measurement": "MPI", "setting": "[15]", "value": 100}, {"measurement": "IC50", "setting": "[16]", "value": 0.083, "unit": "µg/mL"}, {"measurement": "IC80", "setting": "[16]", "value": 0.643, "unit": "µg/mL"}, {"measurement": "MPI", "setting": "[16]", "value": 100}, {"measurement": "IC50", "setting": "[17]", "value": "> 50", "unit": "µg/mL"}, {"measurement": "IC80", "setting": "[17]", "value": "> 50", "unit": "µg/mL"}, {"measurement": "MPI", "setting": "[17]", "value": 0}, {"measurement": "IC50", "setting": "[18]", "value": 0.048, "unit": "µg/mL"}, {"measurement": "IC80", "setting": "[18]", "value": 0.279, "unit": "µg/mL"}, {"measurement": "MPI", "setting": "[18]", "value": 100}, {"measurement": "IC50", "setting": "[19]", "value": 0.005, "unit": "µg/mL"}, {"measurement": "IC80", "setting": "[19]", "value": 0.025, "unit": "µg/mL"}, {"measurement": "MPI", "setting": "[19]", "value": 100}, {"measurement": "IC50", "setting": "[20]", "value": 0.123, "unit": "µg/mL"}, {"measurement": "IC80", "setting": "[20]", "value": 0.455, "unit": "µg/mL"}, {"measurement": "MPI", "setting": "[20]", "value": 100}, {"measurement": "IC50", "setting": "[21]", "value": 0.133, "unit": "µg/mL"}, {"measurement": "IC80", "setting": "[21]", "value": 0.548, "unit": "µg/mL"}, {"measurement": "MPI", "setting": "[21]", "value": 100}, {"measurement": "IC50", "setting": "[22]", "value": 0.069, "unit": "µg/mL"}, {"measurement": "IC80", "setting": "[22]", "value": 0.245, "unit": "µg/mL"}, {"measurement": "MPI", "setting": "[22]", "value": 100}, {"measurement": "IC50", "setting": "[23]", "value": "> 50", "unit": "µg/mL"}, {"measurement": "IC80", "setting": "[23]", "value": "> 50", "unit": "µg/mL"}, {"measurement": "MPI", "setting": "[23]", "value": 18}, {"measurement": "IC50", "setting": "[24]", "value": 0.178, "unit": "µg/mL"}, {"measurement": "IC80", "setting": "[24]", "value": 1.17, "unit": "µg/mL"}, {"measurement": "MPI", "setting": "[24]", "value": 100}, {"measurement": "IC50", "setting": "[25]", "value": 1.98, "unit": "µg/mL"}, {"measurement": "IC80", "setting": "[25]", "value": 10.7, "unit": "µg/mL"}, {"measurement": "MPI", "setting": "[25]", "value": 97}, {"measurement": "IC50", "setting": "[26]", "value": 0.016, "unit": "µg/mL"}, {"measurement": "IC80", "setting": "[26]", "value": 0.068, "unit": "µg/mL"}, {"measurement": "MPI", "setting": "[26]", "value": 100}, {"measurement": "IC50", "setting": "[27]", "value": 0.009, "unit": "µg/mL"}, {"measurement": "IC80", "setting": "[27]", "value": 0.031, "unit": "µg/mL"}, {"measurement": "MPI", "setting": "[27]", "value": 100}, {"measurement": "IC50", "setting": "[28]", "value": 0.045, "unit": "µg/mL"}, {"measurement": "IC80", "setting": "[28]", "value": 0.205, "unit": "µg/mL"}, {"measurement": "MPI", "setting": "[28]", "value": 100}, {"measurement": "IC50", "setting": "[29]", "value": 0.039, "unit": "µg/mL"}, {"measurement": "IC80", "setting": "[29]", "value": 0.18, "unit": "µg/mL"}, {"measurement": "MPI", "setting": "[29]", "value": 100}, {"measurement": "IC50", "setting": "[30]", "value": "> 50", "unit": "µg/mL"}, {"measurement": "IC80", "setting": "[30]", "value": "> 50", "unit": "µg/mL"}, {"measurement": "MPI", "setting": "[30]", "value": 14}, {"measurement": "IC50", "setting": "[31]", "value": "> 50", "unit": "µg/mL"}, {"measurement": "IC80", "setting": "[31]", "value": "> 50", "unit": "µg/mL"}, {"measurement": "MPI", "setting": "[31]", "value": 2}, {"measurement": "IC50", "setting": "[32]", "value": 0.135, "unit": "µg/mL"}, {"measurement": "IC80", "setting": "[32]", "value": 0.651, "unit": "µg/mL"}, {"measurement": "MPI", "setting": "[32]", "value": 100}]}]}
